Results taken from patent US20250145697A1 (WASHINGTON UNIVERSITY, published 2025).
Residue numbers refer to the chain shown, from its start. Blank lines part the entries; values can stand above or below the binder they belong to.

Tests used:
[1] = target: T1, ApoE4 amino acids 1-132, expressed on yeast (human, UniProt P02649 19-150); experiment: yeast display of myc-tagged ApoE4 fragment, antibody staining
T1 construct: with myc tag, on yeast cells; range counts on the mature protein; also called up to helix 3; not shown: myc tag and yeast surface-display partner
T1 chain: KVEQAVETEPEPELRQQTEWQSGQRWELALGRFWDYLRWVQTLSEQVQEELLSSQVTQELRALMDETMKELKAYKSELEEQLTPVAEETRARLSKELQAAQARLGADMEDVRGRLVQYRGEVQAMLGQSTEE

[2] = target: T2, ApoE4 amino acids 24-125, expressed on yeast (human, UniProt P02649 42-143); experiment: as above
T2 construct: with myc tag, on yeast cells; range counts on the mature protein; also called helix1 + 2 + 3
T2 chain: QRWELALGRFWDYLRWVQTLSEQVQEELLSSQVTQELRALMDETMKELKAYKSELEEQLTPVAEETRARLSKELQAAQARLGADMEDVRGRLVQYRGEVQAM

murine ApoE = target: T3, murine ApoE (mouse, UniProt P08226 19-311); experiment: not described
T3 sequence (looked up): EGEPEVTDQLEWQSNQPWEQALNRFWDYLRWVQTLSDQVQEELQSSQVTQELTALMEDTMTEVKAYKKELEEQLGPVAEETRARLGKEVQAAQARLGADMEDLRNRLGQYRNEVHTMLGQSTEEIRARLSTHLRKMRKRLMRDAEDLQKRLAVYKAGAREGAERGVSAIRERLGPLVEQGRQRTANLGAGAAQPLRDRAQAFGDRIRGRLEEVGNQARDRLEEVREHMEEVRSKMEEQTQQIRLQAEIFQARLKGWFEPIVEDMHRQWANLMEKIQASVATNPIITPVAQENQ

[3] = target: T4, recombinant alipidated human ApoE4 (human, UniProt P02649 19-317); experiment: SPR, biotinylated recombinant apoE4 captured on a streptavidin chip; column Kd (1/s)
T4 construct: mature; full length recombinant protein made in E. coli or bought; biotinylated for SPR; position 112 is counted on the mature protein, not on the precursor entry; also called recApoE; non-lipidated ApoE4
T4 sequence (P02649 19-317 C130R): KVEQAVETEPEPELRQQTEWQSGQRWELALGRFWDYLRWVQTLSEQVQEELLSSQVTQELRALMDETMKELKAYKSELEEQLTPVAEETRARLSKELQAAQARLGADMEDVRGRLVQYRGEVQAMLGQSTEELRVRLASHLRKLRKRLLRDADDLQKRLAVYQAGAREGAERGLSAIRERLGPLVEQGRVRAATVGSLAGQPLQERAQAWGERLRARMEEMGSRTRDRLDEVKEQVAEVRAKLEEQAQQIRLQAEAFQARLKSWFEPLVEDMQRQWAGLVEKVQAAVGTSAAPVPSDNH
Protocol: (§1) ELISA plates were coated with 0.5 μg/ml of recombinant apoE2 (square), apoE3 (open circle), or apoE4 (closed circle). Then different concentrations of (A) HJ151, (B) HJ153, (C) HJ154, or (D) HJ156 were loaded on the plates. Horse-radish peroxidase labeled goat anti-mouse secondary antibodies were used to detect binding. […] HJ151 is specific for ApoE4 and HJ156 binds only ApoE3 and ApoE4. FIG. 5E-H are graphs depicting surface plasmon resonance profiles for various antibodies. Anti-ApoE antibodies were serially diluted 3-fold (starting at 100 nM for HJ153 (E), and 1000 nM for HJ151 (F), and […] (G)) for detection of binding to biotinylated-recombinant apoE4 captured on a streptavidin chip. Samples were injected at a flow rate of 30 μl/minute. (H) Apparent KD values of HJ151, HJ153 and HJ156 were calculated based on the SPR experiment.
(§2) ELISA plates were coated with 0.5 μg/ml of recombinant apoE2, apoE3, or apoE4. Then different concentrations of HJ151 (FIG. 5A), HJ153 (FIG. 5B), HJ154 (FIG. 5C), or HJ156 (FIG. 5D) were loaded on the plates. Horse-radish peroxidase labeled goat anti-mouse secondary antibodies were used to detect binding. […] HJ151 is specific for ApoE4 and HJ156 binds only ApoE3 and ApoE4. Surface plasmon resonance profiles for various antibodies was also performed.

[4] = target: T4, recombinant alipidated human ApoE4; experiment: SPR, biotinylated recombinant apoE4 captured on a streptavidin chip; column Ka (1/Ms)
Protocol: as §1, §2

[5] = target: T4, recombinant alipidated human ApoE4; experiment: SPR, biotinylated recombinant apoE4 captured on a streptavidin chip; column Apparent KD (M)
Protocol: as §1, §2

[6] = target: T5, heat-induced aggregates of ApoE4 (human, UniProt P02649 19-317); experiment: ELISA: pellet of heat-aggregated ApoE4 coated at 0.5 ug/ml, antibody titrated, HRP goat anti-mouse IgG, OD650
T5 construct: mature; aggregated state of the recombinant protein; also called ApoE4 incubated at 40 C for 24 hr; heat-treated ApoE4
Protocol: (§3) The aggregated ApoE was induced by incubating ApoE at 1 mg/ml concentration at 40° C. for 24 hours. The aggregates then were recovered in the pellet fraction following ultracentrifugation at 186,000 g for 1 hour. For ELISA, the untreated ApoE or heat-induced aggregates of ApoE were coated directly to ELISA plates at 0.5 μg/ml overnight at 4° C. After three washes with PBS, the wells were blocked with 1% BSA-PBS for 1 hour at room temperature with shaking at 500 rpm. The blocked wells were washed once with PBS and subsequently loaded with antibodies at serial concentrations (starting at 100 nM with 5-fold dilutions thereafter). Bound antibodies were detected with HRP-labeled goat anti-mouse IgG (Jackson Immunoresearch) and visualized with TMB substrate at OD₆₅₀ (reaction stopped with BioFX stop solution).

[7] = target: T6, recombinant alipidated human ApoE3 (human, UniProt P02649 19-317); experiment: direct ELISA on coated recombinant alipidated ApoE (0.5 ug/ml)
T6 construct: mature; full length recombinant protein made in E. coli or bought
T6 sequence (P02649 19-317): as the sequence (P02649 19-317 C130R) above, with R112C counted along it
Summary of the method: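 Antibody dose-response curves were built by HRP-conjugated goat anti-mouse IgG detection of anti-ApoE antibodies bound to blocked plates. The coat was full-length alipidated recombinant ApoE at 0.5 μg/ml, applied overnight, either E. coli-expressed and purified or commercially sourced.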

[8] = target: T7, heat-induced aggregates of ApoE3 (human, UniProt P02649 19-317); experiment: ELISA: pellet of heat-aggregated ApoE3 coated at 0.5 ug/ml, antibody titrated, HRP goat anti-mouse IgG, OD650
T7 construct: mature; aggregated state of the recombinant protein; also called heat treated ApoE3
T7 sequence (P02649 19-317): as the sequence (P02649 19-317 C130R) above, with R112C counted along it
Protocol: as §3

binding result [1]: binds | binding result [2]: binds | binding result (murine ApoE): no binding | koff [3]: 0.00119 s⁻¹ | kon [4]: 19700 M⁻¹ s⁻¹ | Kd [5]: 60.2 nM | EC50 (read off the curve) [6]: ~0.3 nM
B1: HJ151 (antibody, V domains shown)
VH: QVQLQQSGAELVRPGASVTLSCKASGYTFTDYEMHWVKQTPVHGLEWIGVIDPEKGGTAYNQKFKGKAILTADKSSSTAYMDLRSLTSEDSAVYYCLKDSWGQGTTLTVSS
VL: DVLMTQTPLSLPVSLGDQASISCRSSQTIVHSDGNTYLEWYLQKPGQSPKLLIYKVSNRFSGVPDRFSGSGSGTYFTLKISRVEAEDLGVYYCFQGSHVPCTFGGGTKLEIKR
notes: murine monoclonal antibody from hybridoma; also called HJ151B (biotinylated)

binding result (murine ApoE): no binding | koff [3]: 0.00523 s⁻¹ | kon [4]: 26400 M⁻¹ s⁻¹ | Kd [5]: 198 nM | EC50 [7]: 1.69 nM | EC50 (read off the curve) [6]: ~0.07 nM | EC50 (read off the curve) [8]: ~0.09 nM
B2: HJ156 (antibody, V domains shown)
VH: QVQLQQSGPELVKPGASVKISCKASGYIFTDYYINWVKRRPGQGLEWIGWIFPGSGVSYYNEQFKGKATLTVDKPSNTAYIFLSRLTSEDSAVYFCARYYSSSPFAYWGQGTLVTVSA
VL: B1 VL with T28N, V30I, D33N, Y41F, K44R, K50E, Y75D, C101Y
notes: murine monoclonal antibody from hybridoma; also called HJ156B (biotinylated)

binding result [1]: binds | binding result [2]: binds | EC50 [7]: 0.24 nM | EC50 (read off the curve) [6]: ~0.3 nM | EC50 (read off the curve) [8]: 0.16 to 0.2 nM
B3: HJ154 (antibody, V domains shown)
VH: QVQLQQPGTEFVMSGASVMLSCKASGYIFTNYWLHWVKQRPGHGLEWIGEIDPSDSYSICNDNFKGKSTLTVDKSSSTAYMQLSSLTSEDSAVYYCAGSLGRVGLAYWGQGTLVTVST
VL: QIVLTQSPAIMSASPGEKVTMSCSASSSVSNMYWYQQKPGSSPKSWIYRTSNLASGVPARFSGSGSGTSYSLTISNMEAEDAATYYCQHYQNYPLTFGAGTKLELKR
notes: murine monoclonal antibody from hybridoma; also called HJ154B (biotinylated)
